Here are results for three variants from IntAct's records for PubMed 23202584.

The chains are these.
B1: Ubiquitin-like protein ATG12 (Homo sapiens), O94817 (parent)
chain: MAEEPQSVLQLPTSIAAGGEGLTDVSPETTTPEPPSSAAVSPGTEEPAGDTKKKIDILLKAVGDTPIMKTKKWAVERTRTIQGLIDFIKKFLKLVASEQLFIYVNQSFAPSPDQEVGTLYECFGSDGKLVLHYCKSQAWG

The experiment covers variants of B1. Conditions: with atg3_mouse Atg3, Q9CPX6.
atg3_mouse Atg3, Q9CPX6, sequence (Q9CPX6 whole entry): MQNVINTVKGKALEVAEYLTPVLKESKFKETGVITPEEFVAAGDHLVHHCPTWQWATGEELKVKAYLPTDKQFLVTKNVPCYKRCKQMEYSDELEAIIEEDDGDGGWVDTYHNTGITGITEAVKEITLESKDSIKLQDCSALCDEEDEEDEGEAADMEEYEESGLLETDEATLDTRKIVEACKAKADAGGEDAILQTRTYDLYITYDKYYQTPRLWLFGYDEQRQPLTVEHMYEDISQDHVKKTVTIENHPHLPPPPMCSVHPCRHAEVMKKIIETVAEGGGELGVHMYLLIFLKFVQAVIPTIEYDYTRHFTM
As for K54D, the “effect of a mutation on the interaction” value is given as “disrupting interaction strength”. W73A: the “effect of a mutation on the interaction” value is recorded as “disrupting interaction strength”. With K72D, the “effect of a mutation on the interaction” value is listed as “disrupting interaction strength”.
